Results taken from the supplement of paper PMC7125110.
± gives the standard error. Fewer inactive variants are shown than the library holds.

B1: glmS ribozyme (parent)
chain: AUAAAAGCGCCAGAACUACAGAAAUGUAGUUGACGAGGAGGAGGUUUAUCGAAUUUUCGGCGGAUGCCUCCAAA

Experiments:
Details in all cases: with glucosamine-6-phosphate
[1] = variants of: B1; experiment: self-cleavage kobs at 160 uM GlcN6P; higher = faster cleavage; RNA array
In short: (§1)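 Glucosamine-6-phosphate in HEPES/KCl/Mg(OAc)2 buffer, at 40 μM to 10 mM, was flowed over barcoded ribozyme variants transcribed in situ by E. coli RNA polymerase on sequenced MiSeq chips. Tracking was through a hybridised Cy3 probe at 37 °C. kobs, kcat and KM came from exponential decay fits and weighted Michaelis–Menten fits of normalised per-tile medians.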

[2] = variants of: B1; experiment: self-cleavage kobs at 2500 uM GlcN6P; higher = faster cleavage; RNA array
In short: as §1

[3] = variants of: B1; experiment: self-cleavage kobs at 10000 uM GlcN6P; higher = faster cleavage; RNA array
In short: as §1

[4] = variants of: B1; experiment: self-cleavage kobs at 640 uM GlcN6P; higher = faster cleavage; RNA array
In short: as §1

Row | Variant | self-cleavage kobs at 160 uM GlcN6P [1] [s⁻¹] | self-cleavage kobs at 2500 uM GlcN6P [2] [s⁻¹] | self-cleavage kobs at 10000 uM GlcN6P [3] [s⁻¹] | self-cleavage kobs at 640 uM GlcN6P [4] [s⁻¹]
1 | C8U G40U | < 1e-05 | < 1e-05 | < 1e-05 | 
2 | G35U A64G | < 1e-05 | < 1e-05 |  | < 1e-05
3 | G38U C58U G63U | < 1e-05 |  |  | 
4 | C8G A14G C34G | < 1e-05 | < 1e-05 |  | < 1e-05
5 | A33U G43C | < 1e-05 | < 1e-05 |  | < 1e-05
6 | A14U A15G U49A A53U | < 1e-05 |  | < 1e-05 | 
7 | C11A C34U G35C | < 1e-05 | < 1e-05 |  | 
8 | A33C G40U G44C U45A G62U | < 1e-05 |  |  | 
9 | A12G A36C G66C C68G | < 1e-05 |  |  | 
10 | G37A G43U U47C A52C A64U | < 1e-05 | < 1e-05 |  | < 1e-05
11 | C34A G41A C71U | < 1e-05 |  |  | 
12 | A15U A42C | < 1e-05 | < 1e-05 | < 1e-05 | < 1e-05
13 | A14G A39G U69A | 0.000285 ± 7.7e-05 | 0.000786 ± 0.00024 |  | 0.000936 ± 0.00031
14 | A33G A53U | < 1e-05 | < 1e-05 | < 1e-05 | 
15 | C11U A15G C68U | 4.79e-05 ± 2.4e-05 | 0.000318 ± 8.7e-05 |  | 9.88e-05 ± 2.1e-05
16 | A12U G29A C68U | 0.000209 ± 5.1e-05 | 0.0017 ± 0.0004 | 0.00275 ± 0.0012 | 0.000265 ± 6.4e-05
17 | C16U G38U U54C G66U C71A | < 1e-05 |  |  | < 1e-05
18 | A42U A53G A64C | < 1e-05 |  |  | < 1e-05
19 | G38C G44U C67G | < 1e-05 |  | < 1e-05 | 
20 | A14U G35U A39G C50U | < 1e-05 |  |  | 
21 | A39C C50A A52U | < 1e-05 |  |  | < 1e-05
22 | G37A A48G A52G G62A | < 1e-05 |  |  | 

Row | Variant | self-cleavage kobs at 160 uM GlcN6P [1] [s⁻¹] | self-cleavage kobs at 2500 uM GlcN6P [2] [s⁻¹] | self-cleavage kobs at 10000 uM GlcN6P [3] [s⁻¹] | self-cleavage kobs at 640 uM GlcN6P [4] [s⁻¹]
23 | C8G U57G | < 1e-05 | < 1e-05 |  | < 1e-05
24 | G40C U46A A64G C70A | < 1e-05 |  |  | 
25 | A39C U47A C50A U56C | < 1e-05 | < 1e-05 |  | 
26 | A42C A64U | < 1e-05 | < 1e-05 | < 1e-05 | < 1e-05
27 | C8A A36U C50G A52U | < 1e-05 | < 1e-05 |  | < 1e-05
28 | C34A G37A C58U | < 1e-05 |  |  | 
29 | A14U U30A C50G C58G | 0.000116 ± 2.1e-05 | 0.000131 ± 2.3e-05 |  | 9.41e-05 ± 1.7e-05
30 | A33U G44C A52U | < 1e-05 | < 1e-05 |  | 
31 | G7C G32C G43U G60U | < 1e-05 | < 1e-05 | < 1e-05 | 
32 | G38U C68A | 7.69e-05 ± 2.1e-05 | 0.000238 ± 9.6e-05 |  | 0.000459 ± 0.00019
33 | A53C U54G | 0.000308 ± 0.00011 | 0.000803 ± 0.00021 |  | 0.000352 ± 0.00012
34 | C10G G43U C50A | < 1e-05 | < 1e-05 |  | 
35 | G60C C61G | < 1e-05 | < 1e-05 |  | < 1e-05
36 | U31G A33C U46G A53G G59A G63A | < 1e-05 | < 1e-05 |  | 
37 | G9U G37U C50U C67U | < 1e-05 |  |  | 
38 | G13A G41U U49A G51C | < 1e-05 |  |  | 
39 | G13C U45C U46C C68A C70G | < 1e-05 | < 1e-05 |  | 
40 | A36G C61G | < 1e-05 |  | < 1e-05 | < 1e-05
41 | G29U G38C A39U C50A | < 1e-05 |  |  | < 1e-05
42 | C10G G32A A33G C61A G63A | 0.00144 ± 0.00069 |  |  | 
43 | G9A C11G A12G A15U C16A U30C G32A A48G G59U G60U | < 1e-05 | < 1e-05 |  | 
44 | C50G A64G | 0.000518 ± 0.00017 |  | 2.48e-05 ± 9.4e-06 | 0.000105 ± 2.1e-05

Row | Variant | self-cleavage kobs at 160 uM GlcN6P [1] [s⁻¹] | self-cleavage kobs at 2500 uM GlcN6P [2] [s⁻¹] | self-cleavage kobs at 10000 uM GlcN6P [3] [s⁻¹] | self-cleavage kobs at 640 uM GlcN6P [4] [s⁻¹]
45 | G38A A42U A52U C68A | < 1e-05 | < 1e-05 |  | < 1e-05
46 | G35U G37C | < 1e-05 | < 1e-05 |  | < 1e-05
47 | G32U C50G | 5.71e-05 ± 2e-05 |  |  | 
48 | A6U G66A C67G | < 1e-05 |  |  | 
49 | U47G U49G G51A G62U | < 1e-05 | < 1e-05 |  | < 1e-05
50 | G29U U69C | 3.84e-05 ± 1.5e-05 | 0.000114 ± 3.1e-05 |  | 0.000356 ± 9e-05
51 | U31C G40A A53U | 9.65e-05 ± 3.1e-05 |  |  | 7.74e-05 ± 1.7e-05
52 | A6C U30G | < 1e-05 |  |  | 
53 | C8G C16A G35U | < 1e-05 | < 1e-05 |  | 
54 | C11G G32A G59C | < 1e-05 |  |  | < 1e-05
55 | A15G C16G A33C U49G A53U | < 1e-05 |  |  | < 1e-05
56 | A52C C58A | < 1e-05 |  | < 1e-05 | < 1e-05
57 | G7U A15G G32A | < 1e-05 |  |  | < 1e-05
58 | C16G A48C G62U | < 1e-05 |  |  | < 1e-05
59 | C34A U47C A48C | < 1e-05 |  |  | 
60 | C8A A15U A36C A52G | < 1e-05 |  |  | 
61 | A12U C34U | < 1e-05 |  | < 1e-05 | < 1e-05
62 | C34G U49G A53G G63C | < 1e-05 |  |  | < 1e-05
63 | G7A U57A | < 1e-05 | < 1e-05 | < 1e-05 | < 1e-05
64 | A14G G51U | < 1e-05 |  |  | 
65 | C10U C34U G38C A39U | < 1e-05 |  |  | 
66 | G21U C71G | 0.000226 ± 5.1e-05 | 0.000294 ± 5.9e-05 |  | 0.000218 ± 3.9e-05

Row | Variant | self-cleavage kobs at 160 uM GlcN6P [1] [s⁻¹] | self-cleavage kobs at 2500 uM GlcN6P [2] [s⁻¹] | self-cleavage kobs at 10000 uM GlcN6P [3] [s⁻¹] | self-cleavage kobs at 640 uM GlcN6P [4] [s⁻¹]
67 | A15C C58U C61A | 0.0001 ± 4.6e-05 |  |  | 6.79e-05 ± 2.5e-05
68 | A6G C50U U54C | < 1e-05 | < 1e-05 |  | < 1e-05
69 | A42U U49A | < 1e-05 | < 1e-05 | < 1e-05 | < 1e-05
70 | C50A C67U U69C | 5.97e-05 ± 1.8e-05 | 0.000119 ± 3.2e-05 |  | 
71 | C50A G63A | < 1e-05 |  | < 1e-05 | 
72 | G7A A33U G44U | < 1e-05 | < 1e-05 |  | 
73 | G32C A42G A64U | < 1e-05 | < 1e-05 |  | < 1e-05
74 | A52U U57A C68U | 8.55e-05 ± 2.1e-05 | 0.000613 ± 0.00014 |  | 0.000196 ± 5.5e-05
75 | G40A U47C | 0.000162 ± 4.2e-05 |  | 0.00144 ± 0.00069 | 
76 | G41U G63A C71U | < 1e-05 |  |  | 
77 | G43A A48C | < 1e-05 |  | < 1e-05 | < 1e-05
78 | U57A G62C | < 1e-05 |  | < 1e-05 | < 1e-05
79 | C10G A53C | < 1e-05 | < 1e-05 | < 1e-05 | < 1e-05
80 | G13U G44U C68U | < 1e-05 | < 1e-05 |  | < 1e-05
81 | C8A G60U U69A | < 1e-05 |  |  | < 1e-05
82 | A36U C50U | < 1e-05 | < 1e-05 |  | 
83 | G38C U49G | < 1e-05 | < 1e-05 |  | < 1e-05
84 | C16G G37A A48U U49C | < 1e-05 |  |  | 
85 | A33G G44U | < 1e-05 |  | < 1e-05 | < 1e-05
86 | U57C G62C | < 1e-05 | < 1e-05 | < 1e-05 | < 1e-05
87 | C8U U55A | < 1e-05 | < 1e-05 |  | < 1e-05
88 | U30C G35U C58U C61A | < 1e-05 | < 1e-05 |  | < 1e-05

Row | Variant | self-cleavage kobs at 160 uM GlcN6P [1] [s⁻¹] | self-cleavage kobs at 2500 uM GlcN6P [2] [s⁻¹] | self-cleavage kobs at 10000 uM GlcN6P [3] [s⁻¹] | self-cleavage kobs at 640 uM GlcN6P [4] [s⁻¹]
89 | G35C G62U A64U | < 1e-05 | < 1e-05 |  | 
90 | A12G G59C G63C C67A | < 1e-05 | < 1e-05 |  | < 1e-05
91 | G41U A48U U49G | < 1e-05 | < 1e-05 |  | < 1e-05
92 | A36C G51C | < 1e-05 |  | < 1e-05 | 
93 | G32A A52U G63C | < 1e-05 | < 1e-05 |  | < 1e-05
94 | A48C G51C | < 1e-05 |  |  | < 1e-05
95 | G32U G44U U47G A64C | < 1e-05 | < 1e-05 |  | 
96 | C10A U30A G35U G43U | < 1e-05 |  |  | 
97 | G7A U31C G60U | < 1e-05 | < 1e-05 |  | 
98 | U30C C50U C70G | 5.6e-05 ± 1.7e-05 | 0.000173 ± 3.3e-05 |  | 0.000134 ± 3.3e-05
99 | U46G A53U U65G | 4.57e-05 ± 1.6e-05 | 0.000976 ± 0.00018 |  | 0.000379 ± 9.9e-05
100 | A6U A42C | < 1e-05 | < 1e-05 | < 1e-05 | 
101 | C11U A33C A53U | < 1e-05 |  |  | < 1e-05
102 | A42U A52C A53G | < 1e-05 |  |  | 
103 | C34U G40U C71U | < 1e-05 | < 1e-05 |  | 
104 | C50G U56A C58G | 9.66e-05 ± 4.4e-05 | 6.12e-05 ± 2.4e-05 |  | 0.00041 ± 0.00014
105 | A6G G38C U49A | < 1e-05 |  |  | < 1e-05
106 | G43A C58U | < 1e-05 |  | < 1e-05 | < 1e-05
